The source of these data is PMC8994484.

This assay deals with ofCP (Olindias formosa). The assay is described as follows: SEC.

With ofCP (natural protein), the stoichiometry N was determined as 2.
